Assay results reported in US20240343811A1 (SHANDONG SIMCERE BIOPHARMACUTICAL, published 2024).
Several values for one entry are separate records, joined by “and”; a condition that tells them apart may be missing. Equal values may be shown once. Read-outs that look alike come from different tables or passages of the source.

What was measured:
[1] = molecular target: T1, human CD16a (158V), full length, on cells (human, UniProt P08637 17-254); test: FACS on FlpinCHO cells
T1 construct: also used as target for the bought Jurkat-NFAT reporter line stably expressing human CD16a (158V); also called FlpinCHO-human CD16a (158V); FlpinCHO-CD16a (158V)

[2] = molecular target: T2, human CD16a (158F), full length, on FlpinCHO cells (human, UniProt P08637 17-254); test: FACS on FlpinCHO cells
[3] = molecular target: T3, CD16 on primary human NK cells (human, UniProt P08637 17-254); test: FACS on human NK cells
T3 construct: whole, on cells; also called resting NK cells
In short: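 EC50 came from curve fitting of flow-cytometric MFI. Antibody titrations were bound for 1 hour on ice to fresh human NK cells blocked in PBS with 2% (w/w) BSA (2×10⁶ cells/ml), followed by five PBS washes before acquisition.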

[4] = molecular target: T1, human CD16a (158V), full length, on …; test: FACS, biotinylated antibody
[5] = molecular target: T2, human CD16a (158F), full length, on …; test: FACS, biotinylated antibody
[6] = molecular target: T4, human CD16b (NA1), full length, on FlpinCHO cells (human, UniProt O75015 17-200); test: FACS on FlpinCHO cells
T4 construct: also called FlpinCHO-human CD16b (NA1)
T4 chain: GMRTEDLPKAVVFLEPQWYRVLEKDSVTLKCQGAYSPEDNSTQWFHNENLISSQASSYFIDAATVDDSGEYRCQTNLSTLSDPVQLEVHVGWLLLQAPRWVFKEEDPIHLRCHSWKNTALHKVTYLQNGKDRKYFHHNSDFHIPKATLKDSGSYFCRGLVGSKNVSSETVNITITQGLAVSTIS
In short: (§1)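 EC50 values come from fitted MFI curves measured by FACS. Antibody dilutions were bound for 1 hour on ice to CD16b-transfected FlpinCHO cells suspended in PBS with 2% BSA blocking solution.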

[7] = molecular target: T5, human CD16b (NA2), full length, on FlpinCHO cells (human, UniProt O75015 17-200); test: FACS on FlpinCHO cells
T5 construct: also called FlpinCHO-human CD16b (NA2)
T5 chain: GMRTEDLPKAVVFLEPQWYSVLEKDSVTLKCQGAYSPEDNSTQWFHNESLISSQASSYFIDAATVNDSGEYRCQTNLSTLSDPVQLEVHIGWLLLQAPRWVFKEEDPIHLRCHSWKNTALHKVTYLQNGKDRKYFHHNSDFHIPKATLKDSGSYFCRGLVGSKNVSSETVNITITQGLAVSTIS
In short: as §1

[8] = molecular target: T1, human CD16a (158V), full length, on …; test: cell-based or functional assay
[9] = molecular target: T3, CD16 on primary human NK cells; test: FACS on human NK cells, biotinylated antibody
[10] = molecular target: T3, CD16 on primary human NK cells; test: FACS on human NK cells, biotinylated antibody, +10 mg/mL human immunoglobulin
[11] = molecular target: T3, CD16 on primary human NK cells; test: as above; remark: listed apart in the source
[12] = molecular target: T3, CD16 on primary human NK cells; test: FACS on human NK cells, biotinylated antibody; remark: listed apart in the source
[13] = molecular target: T6, cynomolgus monkey CD16, full length, on FlpinCHO cells (cynomolgus monkey, UniProt Q8SPW2 17-254); test: FACS on FlpinCHO cells
T6 construct: also called FlpinCHO-cyno CD16; Flipin CHO-cyno CD16
T6 sequence (Q8SPW2 other isoform, or with tags, fused parts or gaps limits assumed): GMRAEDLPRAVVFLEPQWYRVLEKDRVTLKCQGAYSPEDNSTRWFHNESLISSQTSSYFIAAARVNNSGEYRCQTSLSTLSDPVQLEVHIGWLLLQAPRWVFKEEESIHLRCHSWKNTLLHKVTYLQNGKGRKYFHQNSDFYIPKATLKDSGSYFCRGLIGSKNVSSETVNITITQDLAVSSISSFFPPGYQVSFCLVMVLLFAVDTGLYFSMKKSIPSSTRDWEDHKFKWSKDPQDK
In short: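 FlpinCHO cells expressing full-length cynomolgus CD16, blocked in PBS/2% BSA at 2×10⁶ cells/ml, incubated with antibody at various concentrations 1 h on ice. Flow cytometry MFI fitted to give EC50.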

[14] = molecular target: T4, human CD16b (NA1), full length, on …; test: FACS on FlpinCHO cells
In short: as §1

[15] = molecular target: T5, human CD16b (NA2), full length, on …; test: FACS on FlpinCHO cells
In short: as §1

[16] = molecular target: T6, cynomolgus monkey CD16, full length, on …; test: FACS on FlpinCHO cells; remark: listed apart in the source
Experimental: The required cells were scale-up cultured in a T-75 cell culture flask to the logarithmic growth phase. The medium was aspirated, and the cells were washed twice with a PBS buffer and then digested with trypsin. After the digestion was terminated, the cells were washed twice with the PBS buffer. The cells were counted, and then the cell pellet was resuspended with a [PBS+2% (w/w) BSA] blocking solution to 2×10⁶ cells/ml, and added to a 96-well FACS reaction plate at 50 μl/well. […] 50 μl/well of the antibody to be detected was added at different concentrations, and incubated on ice for 1 hour. […] The mixture was centrifuged and washed 5 times with PBS, and FACS (FACS Canto II, purchased from BD Company) was used for detection and result analysis. Data analysis was performed by software (CellQuest) to obtain the mean fluorescence intensity (MFI) of the cells. Then, software (GraphPad Prism8) was used for analysis, data fitting and EC50 value calculation.
Flipin CHO-cyno CD16 cells were subjected to FACS detection and data analysis according to the method of Example 3.1.

[17] = molecular target: T1, human CD16a (158V), full length, on …; test: cell-based or functional assay; remark: listed apart in the source
[18] = molecular target: T1, human CD16a (158V), full length, on …; test: FACS, biotinylated antibody, +10 mg/mL human immunoglobulin
[19] = molecular target: T2, human CD16a (158F), full length, on …; test: as above
[20] = molecular target: T1, human CD16a (158V), full length, on …; test: FACS on FlpinCHO cells; remark: listed apart in the source
In short: (§2)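 EC50 comes from fitted concentration–MFI curves. Antibody dilutions were bound to the cells for 1 hour on ice in PBS blocking buffer with 2% BSA, followed by washing and flow cytometric readout.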

[21] = molecular target: T2, human CD16a (158F), full length, on …; test: FACS on FlpinCHO cells; remark: listed apart in the source
In short: as §2

[22] = molecular target: T4, human CD16b (NA1), full length, on …; test: FACS on FlpinCHO cells
[23] = molecular target: T1, human CD16a (158V), full length, on …; test: FACS on FlpinCHO cells; remark: listed apart in the source
[24] = molecular target: T2, human CD16a (158F), full length, on …; test: FACS on FlpinCHO cells; remark: listed apart in the source
[25] = molecular target: T5, human CD16b (NA2), full length, on …; test: FACS on FlpinCHO cells
[26] = molecular target: T6, cynomolgus monkey CD16, full length, on …; test: FACS on FlpinCHO cells; remark: listed apart in the source

B1: P2C47 scFv-hFc (Fc fusion)
chain: SYVLTQPSSVSVAPGQTATISCGGHNIGSKNVHWYQQRPGQSPVLVIYQDNKRPSGIPERFSGSNSGNTATLTISGTQAMDEADYYCQVWDNYSVLFGGGTKLTVLGGGGSGGGGSGGGGSQVQLVQSGAEVKKPGESLKVSCKASGYTFTSYYMHWVRQAPGQGLEWMGAIEPMYGSTSYAQKFQGRVTMTRDTSTSTVYMELSSLRSEDTAVYYCARGSAYYYDFADYWGQGTLVTVSSEPKSSDKTHTCPPCPAPEEFGGPSVFLFPPKPKDTLMISRTPEVTCVVVAVSHEDPEVKFNWYVDGVEVHNAKTKPREEQYNSTYRVVSVLTVLHQDWLNGKEYKCKVSNKALPAPIEKTISKAKGQPREPQVYTLPPSREEMTKNQVSLTCLVKGFYPSDIAVEWESNGQPENNYKTTPPVLDSDGSFFLYSKLTVDKSRWQQGNVFSCSVMHEALHNHYTQKSLSLSPGK
notes: also called control antibody P2C47
- EC50 [1]: 0.54 nM
- Maximum mean fluorescence intensity [1]: 8800
- EC50 [2]: 0.56 nM
- Maximum mean fluorescence intensity [2]: 9400
- EC50 [3]: 0.84 nM
- Maximum mean fluorescence intensity [3]: 2540
- EC50 [4]: 0.58 nM and 0.77 nM
- EC50 [5]: 0.41 nM and 0.39 nM
- EC50 [6]: 3.18 nM and 5.5 nM
- EC50 [7]: 14.2 nM and 5.12 nM
- EC50, activation activity for Jurkat cell [8]: 0.04 nM
- Maximum fluorescence value [8]: 158000
- EC50 [9]: 1.33 nM
- Maximum mean fluorescence intensity [9]: 33000
- EC50 [10]: 5.4 nM
- Maximum mean fluorescence intensity [10]: 30900
- EC50 [11]: 4.3 nM
- Maximum mean fluorescence intensity [11]: 28000
- EC50 [12]: 0.99 nM
- Maximum mean fluorescence intensity [12]: 30100
- EC50 [13]: 0.62 nM
- Maximum mean fluorescence intensity [13]: 20100
- EC50 [14]: 3.36 nM
- Maximum mean fluorescence intensity [14]: 43600
- Maximum mean fluorescence intensity [15]: 63400
- EC50 [16]: 0.58 nM
- Maximum mean fluorescence intensity [16]: 29200
- EC50, activation activity for Jurkat cell [17]: 0.06 nM
- Maximum fluorescence value [17]: 149000
- EC50 [18]: 3.32 nM and 2.87 nM
- EC50 [19]: 2.97 nM and 2.63 nM
- EC50 [20]: 0.85 nM and 1.03 nM
- EC50 [21]: 0.62 nM and 0.98 nM

B2: 3G8 antibody as used to check the stably transfected cell lines (Example 1.3) (antibody, V domains shown)
VH: QVTLKESGPGILQPSQTLSLTCSFSGFSLRTSGMGVGWIRQPSGKGLEWLAHIWWDDDKRYNPALKSRLTISKDTSSNQVFLKIASVDTADTATYYCAQINPAWFAYWGQGTLVTVSA
VL: DTVLTQSPASLAVSLGQRATISCKASQSVDFDGDSFMNWYQQKPGQPPKLLIYTTSNLESGIPARFSASGSGTDFTLNIHPVEEEDTATYYCQQSNEDPYTFGGGTKLEIK
notes: also called CD16 antibody
- Mean fluorescence intensity [22]: 28100
- Mean fluorescence intensity [23]: 5870
- Mean fluorescence intensity [24]: 3080
- Mean fluorescence intensity [25]: 24800
- Mean fluorescence intensity [26]: 5500
